The target of this assay is human CD81 tetraspanin membrane receptor, CD81-GlyGly-rho-1D4 (human) (UniProt P60033). In words: ELISA; plates coated with 100 ng rho-1D4 antibody; 100 ng purified CD81 captured by its C-terminal tag; HCV-E2 added at 0.4 to 20 nM for 2 h at room temperature in 25 mM Tris-HCl pH 7.5, 144 mM NaCl, 0.05% DM; detected with goat anti-E2 polyclonal antibody; nonspecific binding (no rho-1D4) subtracted; non-linear regression. (In general: An ELISA detects its analyte on a solid surface through an enzyme-linked reagent.)
UniProt P60033, sequence (P60033 whole entry): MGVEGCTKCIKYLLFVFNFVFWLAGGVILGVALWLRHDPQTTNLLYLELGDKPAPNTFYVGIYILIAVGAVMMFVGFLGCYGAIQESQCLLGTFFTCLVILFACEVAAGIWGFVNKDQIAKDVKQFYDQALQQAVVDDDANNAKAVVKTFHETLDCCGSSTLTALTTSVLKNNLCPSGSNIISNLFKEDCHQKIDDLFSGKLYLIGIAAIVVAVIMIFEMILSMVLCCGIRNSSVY

As for “Recombinant HCV E2 envelope protein (from UniProt P27958 384-746) (ligand)”, the equilibrium dissociation constant (Kd) was found to be 3.8 nM.

As usually defined, the Kd is the concentration at which binding is half-saturated. Read a low Kd as tighter binding.

The values are drawn from article PMC2391292.
